{
  "source": "paper PMC9918532",
  "proteins": {"B1": {"name": "YTHDF2: OSMI-1 (protein)", "parent chain": "MSASSLLEQRPKGQGNKVQNGSVHQKDGLNDDDFEPYLSPQARPNNAYTAMSDSYLPSYYSPSIGFSYSLGEAAWSTGGDTAMPYLTSYGQLSNGEPHFLPDAMFGQPGALGSTPFLGQHGFNFFPSGIDFSAWGNNSSQGQSTQSSGYSSNYAYAPSSLGGAMIDGQSAFANETLNKAPGMNTIDQGMAALKLGSTEVASNVPKVVGSAVGSGSITSNIVASNSLPPATIAPPKPASWADIASKPAKQQPKLKTKNGIAGSSLPPPPIKHNMDIGTWDNKGPVAKAPSQALVQNIGQPTQGSPQPVGQQANNSPPVAQASVGQQTQPLPPPPPQPAQLSVQQQAAQPTRWVAPRNRGSGFGHNGVDGNGVGQSQAGSGSTPSEPHPVLEKLRSINNYNPKDFDWNLKHGRVFIIKSYSEDDIHRSIKYNIWCSTEHGNKRLDAAYRSMNGKGPVYLLFSVNGSGHFCGVAEMKSAVDYNTCAGVWSQDKWKGRFDVRWIFVKDVPNSQLRHIRLENNENKPVTNSRDTQEVPLEKAKQVLKIIASYKHTTSIFDDFSHYEKRQEEEESVKKERQGRGK"}, "B2": {"name": "YTHDF2: OGT knockdown (protein)", "parent chain": "B1 parent chain"}, "B3": {"name": "YTHDF2: S263A (protein)", "parent chain": "B1 parent chain"}, "B4": {"name": "YTHDF2: TMG (protein)", "parent chain": "B1 parent chain"}, "B5": {"name": "YTHDF2: shOGT (protein)", "parent chain": "B1 parent chain"}},
  "key": {"[1]": {"test": "nuclear/cytosolic fractionation and immunofluorescence"}, "[2]": {"test": "immunoblot of endogenous YTHDF2, hepatoma cells", "conditions": "control: untreated / control shRNA"}, "[3]": {"test": "HA-Ub in-cell ubiquitination, anti-HA and anti-K48 blot", "conditions": "glycan lost; control: untreated / control shRNA"}, "[4]": {"test": "in vitro ubiquitination with His-OGT and UDP-GlcNAc", "conditions": "glycan lost; control: YTHDF2-WT"}, "[5]": {"test": "actinomycin D chase, RT-qPCR, HepG2-HBV1.3-shYTHDF2", "conditions": "glycan lost; control: YTHDF2-WT"}, "[6]": {"test": "HA-Ub in-cell ubiquitination, Flag IP, MG132", "conditions": "glycan lost; control: YTHDF2-WT"}, "[7]": {"test": "CHX chase, HepG2-HBV1.3-shYTHDF2, anti-Flag blot", "conditions": "glycan lost; control: YTHDF2-WT"}, "[8]": {"test": "CHX chase, HepG2-HBV1.3-shYTHDF2", "conditions": "glycan gained; control: untreated Flag-YTHDF2-WT"}, "[9]": {"test": "CHX chase, Flag-YTHDF2 in HepG2-HBV1.3", "conditions": "glycan lost; control: control shRNA"}, "[10]": {"test": "CHX chase, endogenous YTHDF2 in HepAD38", "conditions": "glycan lost; control: control shRNA"}},
  "data": [
    {"protein": "B1", "values": [
      {"measurement": "localisation_or_trafficking", "setting": "[1]; glycan lost, control: untreated", "value": "no change"},
      {"measurement": "expression_or_secretion", "setting": "[2]; glycan lost", "value": "decreases"},
      {"measurement": "other: ubiquitination", "setting": "[3]", "value": "increases"}
    ]},
    {"protein": "B2", "values": [
      {"measurement": "expression_or_secretion", "setting": "[2]; glycan lost", "value": "decreases"}
    ]},
    {"protein": "B3", "values": [
      {"measurement": "localisation_or_trafficking", "setting": "[1]; glycan lost, control: YTHDF2-WT", "value": "no change"},
      {"measurement": "other: ubiquitination", "setting": "[4]", "value": "increases"},
      {"measurement": "other: stabilisation of target mRNA", "setting": "[5]", "value": "decreases"},
      {"measurement": "other: ubiquitination", "setting": "[6]", "value": "increases"},
      {"measurement": "degradation_or_half_life", "setting": "[7]", "value": "decreases"}
    ]},
    {"protein": "B4", "values": [
      {"measurement": "localisation_or_trafficking", "setting": "[1]; glycan gained, control: untreated", "value": "no change"},
      {"measurement": "expression_or_secretion", "setting": "[2]; glycan gained", "value": "increases"},
      {"measurement": "degradation_or_half_life", "setting": "[8]", "value": "increases"}
    ]},
    {"protein": "B5", "values": [
      {"measurement": "degradation_or_half_life", "setting": "[9]", "value": "decreases"},
      {"measurement": "other: ubiquitination", "setting": "[3]", "value": "increases"},
      {"measurement": "degradation_or_half_life", "setting": "[10]", "value": "decreases"}
    ]}
  ]
}
